Measurements taken from publication PMC3213134, “A Non-Motor Microtubule Binding Site Is Essential for the High Processivity and Mitotic Function of Kinesin-8 Kif18A” (PLoS ONE, 2011).

Target: the molecule itself
Assay: photobleaching step counting (TIRF microscopy, streaming mode); single GFP-tagged motors moving on immobilised microtubules, ATP reduced to 15 µM, 100 ms exposure for 1200 frames; only one and two step bleaching events seen

B1: His-Kif18A^1-777-GFP (domain or fragment, human, UniProt Q8NI77 1-777, looked up)
chain: MSVTEEDLCHHMKVVVRVRPENTKEKAAGFHKVVHVVDKHILVFDPKQEEVSFFHGKKTTNQNVIKKQNKDLKFVFDAVFDETSTQSEVFEHTTKPILRSFLNGYNCTVLAYGATGAGKTHTMLGSADEPGVMYLTMLHLYKCMDEIKEEKICSTAVSYLEVYNEQIRDLLVNSGPLAVREDTQKGVVVHGLTLHQPKSSEEILHLLDNGNKNRTQHPTDMNATSSRSHAVFQIYLRQQDKTASINQNVRIAKMSLIDLAGSERASTSGAKGTRFVEGTNINRSLLALGNVINALADSKRKNQHIPYRNSKLTRLLKDSLGGNCQTIMIAAVSPSSVFYDDTYNTLKYANRAKDIKSSLKSNVLNVNNHITQYVKICNEQKAEILLLKEKLKAYEEQKAFTNENDQAKLMISNPQEKEIERFQEILNCLFQNREEIRQEYLKLEMLLKENELKSFYQQQCHKQIEMMCSEDKVEKATGKRDHRLAMLKTRRSYLEKRREEELKQFDENTNWLHRVEKEMGLLSQNGHIPKELKKDLHCHHLHLQNKDLKAQIRHMMDLACLQEQQHRQTEAVLNALLPTLRKQYCTLKEAGLSNAAFESDFKEIEHLVERKKVVVWADQTAEQPKQNDLPGISVLMTFPQLGPVQPIPCCSSSGGTNLVKIPTEKRTRRKLMPSPLKGQHTLKSPPSQSVQLNDSLSKELQPIVYTPEDCRKAFQNPSTVTLMKPSSFTTSFQAISSNINSDNCLKMLCEVAIPHNRRKECGQEDLDSTFTICEDIK
notes: not shown: His6, N-terminal, kept; GFP, C-terminal, kept
stoichiometry N: 2

B2: His-Kif18A^FL-GFP (natural protein, human, UniProt Q8NI77 1-898, looked up)
chain: MSVTEEDLCHHMKVVVRVRPENTKEKAAGFHKVVHVVDKHILVFDPKQEEVSFFHGKKTTNQNVIKKQNKDLKFVFDAVFDETSTQSEVFEHTTKPILRSFLNGYNCTVLAYGATGAGKTHTMLGSADEPGVMYLTMLHLYKCMDEIKEEKICSTAVSYLEVYNEQIRDLLVNSGPLAVREDTQKGVVVHGLTLHQPKSSEEILHLLDNGNKNRTQHPTDMNATSSRSHAVFQIYLRQQDKTASINQNVRIAKMSLIDLAGSERASTSGAKGTRFVEGTNINRSLLALGNVINALADSKRKNQHIPYRNSKLTRLLKDSLGGNCQTIMIAAVSPSSVFYDDTYNTLKYANRAKDIKSSLKSNVLNVNNHITQYVKICNEQKAEILLLKEKLKAYEEQKAFTNENDQAKLMISNPQEKEIERFQEILNCLFQNREEIRQEYLKLEMLLKENELKSFYQQQCHKQIEMMCSEDKVEKATGKRDHRLAMLKTRRSYLEKRREEELKQFDENTNWLHRVEKEMGLLSQNGHIPKELKKDLHCHHLHLQNKDLKAQIRHMMDLACLQEQQHRQTEAVLNALLPTLRKQYCTLKEAGLSNAAFESDFKEIEHLVERKKVVVWADQTAEQPKQNDLPGISVLMTFPQLGPVQPIPCCSSSGGTNLVKIPTEKRTRRKLMPSPLKGQHTLKSPPSQSVQLNDSLSKELQPIVYTPEDCRKAFQNPSTVTLMKPSSFTTSFQAISSNINSDNCLKMLCEVAIPHNRRKECGQEDLDSTFTICEDIKSSKCKLPEQESLPNDNKDILQRLDPSSFSTKHSMPVPSMVPSYMAMTTAAKRKRKLTSSTSNSSLTADVNSGFAKRVRQDNSSEKHLQENKPTMEHKRNICKINPSMVRKFGRNISKGNLR
notes: also called full-length Kif18A^FL-GFP; not shown: His6, N-terminal, kept; GFP, C-terminal, kept
stoichiometry N: 2
